According to patent US20240239878A1 (SHANGHAI QILU PHARMACEUTICAL RESEARCH AND DEVELOPMENT CENTRE, published 2024):
Like-named read-outs stand apart in the source and are kept apart here.

T1: Cynomolgus monkey DLL3 on HEK293 cells (HEK293-cyno DLL3) (Cynomolgus monkey, UniProt Q9NYJ7 27-618 (human entry))
T1 chain: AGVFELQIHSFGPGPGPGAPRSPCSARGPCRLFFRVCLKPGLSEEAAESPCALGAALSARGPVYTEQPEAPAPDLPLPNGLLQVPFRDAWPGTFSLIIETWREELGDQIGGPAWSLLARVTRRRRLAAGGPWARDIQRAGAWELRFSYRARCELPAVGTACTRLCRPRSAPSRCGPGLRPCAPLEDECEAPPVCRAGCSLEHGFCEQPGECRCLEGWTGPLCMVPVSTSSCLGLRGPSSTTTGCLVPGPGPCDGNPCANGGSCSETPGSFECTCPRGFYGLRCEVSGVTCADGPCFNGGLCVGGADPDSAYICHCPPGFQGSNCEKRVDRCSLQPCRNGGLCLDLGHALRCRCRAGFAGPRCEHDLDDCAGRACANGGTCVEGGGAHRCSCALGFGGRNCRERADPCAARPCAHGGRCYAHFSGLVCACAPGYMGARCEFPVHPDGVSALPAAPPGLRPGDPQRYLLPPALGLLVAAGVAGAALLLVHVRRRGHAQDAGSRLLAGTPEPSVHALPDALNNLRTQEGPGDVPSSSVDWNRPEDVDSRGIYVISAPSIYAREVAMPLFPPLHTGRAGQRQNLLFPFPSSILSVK

T2: human DLL3 on SHP-77 cells (human, UniProt Q9NYJ7 27-618)
T2 construct: also called DLL3-expressing cells (SHP-77)
T2 sequence: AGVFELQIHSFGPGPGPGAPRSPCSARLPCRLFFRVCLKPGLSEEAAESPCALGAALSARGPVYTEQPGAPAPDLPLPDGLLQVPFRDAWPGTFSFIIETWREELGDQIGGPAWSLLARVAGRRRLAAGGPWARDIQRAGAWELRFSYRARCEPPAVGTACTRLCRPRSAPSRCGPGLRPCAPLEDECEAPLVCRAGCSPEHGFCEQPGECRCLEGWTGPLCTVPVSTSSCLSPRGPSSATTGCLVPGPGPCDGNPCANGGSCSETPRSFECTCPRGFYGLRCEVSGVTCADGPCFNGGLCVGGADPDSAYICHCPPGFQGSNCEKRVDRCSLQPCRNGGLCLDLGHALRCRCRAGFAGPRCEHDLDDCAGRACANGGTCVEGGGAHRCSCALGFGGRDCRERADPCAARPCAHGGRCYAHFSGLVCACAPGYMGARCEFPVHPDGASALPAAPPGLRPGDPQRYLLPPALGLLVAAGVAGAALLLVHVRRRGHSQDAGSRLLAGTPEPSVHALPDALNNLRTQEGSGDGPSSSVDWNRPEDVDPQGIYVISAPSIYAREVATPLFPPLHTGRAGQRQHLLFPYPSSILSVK

T3: human DLL3 antigen protein (Kactus Biosystems, Cat. No. DLL-HM103) (human, UniProt Q9NYJ7 27-492)
T3 sequence: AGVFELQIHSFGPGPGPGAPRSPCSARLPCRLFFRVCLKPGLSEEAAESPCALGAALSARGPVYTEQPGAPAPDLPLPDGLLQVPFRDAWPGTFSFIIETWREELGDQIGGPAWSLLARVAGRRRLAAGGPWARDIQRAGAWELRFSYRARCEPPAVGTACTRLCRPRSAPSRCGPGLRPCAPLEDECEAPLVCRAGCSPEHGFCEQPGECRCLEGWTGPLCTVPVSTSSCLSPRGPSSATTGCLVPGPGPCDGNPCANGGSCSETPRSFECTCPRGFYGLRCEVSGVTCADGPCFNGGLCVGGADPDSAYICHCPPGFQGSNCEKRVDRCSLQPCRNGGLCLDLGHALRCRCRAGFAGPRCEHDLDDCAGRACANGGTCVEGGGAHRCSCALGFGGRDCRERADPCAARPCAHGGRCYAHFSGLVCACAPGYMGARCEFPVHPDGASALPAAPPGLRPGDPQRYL


What was measured:
[1] = biological target: T1, Cynomolgus monkey DLL3 on HEK293 cells …; assay: flow cytometry, HEK293-cyno DLL3 cells
Protocol: (§1) SHP-77 and HEK293-cyno DLL3 cells were cultured. The culture medium for SHP-77 cells were RPMI1640+10% FBS, and the culture medium for HEK293 cyno DLL3 cells were DMEM+10% FBS+200 μg/ml Hygromycin. The cells were cultured in a T75 cell culture flask at a 37° C. 5% CO₂ incubator. When using cells, they are washed with sterile DPBS, digested with 0.25% trypsin EDTA for about 5 minutes, and then stopped with a complete medium.
(§2) The digested cells were centrifuged at 1000 rpm for 5 min at room temperature. The supernatant was discarded and the cells were resuspended in 100 μL of 1% BSA (in PBS). The cells were counted and adjusted to a cell density of 1E6/m. The dilute cells were seeded in a 96-well round-bottom culture plate (corning 3799), and centrifuged at 1500 rpm for 5 min at 4° C. The supernatant was discarded and the cells were stored at 4° C. until use. Antibody samples to be tested were diluted with 1% BSA (in PBS) at a starting concentration of 100 nM, downwards by a 10-fold gradient for 7 concentrations. The cells were resuspended with the diluted antibody at 100 μL/well and incubated for 1 hour at 4° C. The cells were centrifuged at 1500 rpm for 5 minutes at 4° C. and the supernatant was discarded. The cells were resuspended and washed with 160 μL of 1% BSA (in PBS), centrifuged at 1500 rpm for 5 minutes at 4° C. The supernatant was discarded. The secondary antibody (goat anti human IgG Fc PE) was diluted 1:200 with 1% BSA (in PBS) according to the manufacturer's instructions and the cells were resuspended with the diluted secondary antibody, 100 μL/well, and incubated for 0.5 h at 4° C. The cells were centrifuged at 1500 rpm for 5 minutes at 4° C. and the supernatant was discarded. The cells were resuspended and washed with 160 μL of 1% BSA (in PBS), centrifuged at 1500 rpm for 5 minutes at 4° C. The supernatant was discarded. The cells were resuspended in 100 μL of 1% BSA (in PBS), and filtered across a 300 mesh gauze. The mean fluorescence intensity of the PE channels was measured by flow cytometry.
(§3) The analyzed mean fluorescence intensity was imported into Graphpad to analyze the median-binding concentration (hereinafter referred to as EC50) of antibody and cell and the top mean fluorescence intensity (Top MFI).

[2] = biological target: T1, Cynomolgus monkey DLL3 on HEK293 cells …; assay: flow cytometry, HEK293-cyno DLL3 cells
Protocol: (§4) Monoclonal selection was performed, and the expression level of DLL3 protein in the monoclonal cells were identified by flow cytometry. The culture was expanded and stored in storage for later use. SHP-77 and HEK293-cyno DLL3 cells were cultured. The culture medium for SHP-77 cells were RPMI1640+10% FBS, and the culture medium for HEK293 cyno DLL3 cells were DMEM+10% FBS+200 μg/ml Hygromycin. The cells were cultured in a T75 cell culture flask at a 37° ° C. in a 5% CO₂ incubator. When using cells, they are washed with sterile DPBS, digested with 0.25% trypsin EDTA for about 5 minutes, and then stopped with a complete medium.
as §2, with “antibody.” for “antibody,”

[3] = biological target: T2, human DLL3 on SHP-77 cells; assay: flow cytometry, SHP-77 cells
Protocol: as §4
as §2, with “antibody.” for “antibody,”

[4] = biological target: T2, human DLL3 on SHP-77 cells; assay: flow cytometry, SHP-77 cells; remark: listed apart in the source
Protocol: as §1, §2, §3

[5] = biological target: T2, human DLL3 on SHP-77 cells; assay: flow cytometry, SHP-77 cells; remark: listed apart in the source
Protocol: SHP-77 cells were cultured. The culture medium for SHP-77 cells was RPMI1640+10% FBS. The cells were cultured in a T75 cell culture flask at a 37° C. 5% CO₂ incubator. When using cells, they are washed with sterile DPBS, digested with 0.25% trypsin EDTA for about 5 minutes, and then stopped with a complete medium.
as §2, with “plated” for “seeded”, “µL/well,” for “μL/well,”
as §3

[6] = biological target: T3, human DLL3 antigen protein (Kactus …); assay: SPR (Biacore 8K), antibody captured on anti-human Fc, DLL3 in solution
Protocol: The affinity and kinetic properties of the humanized anti-DLL3 antibody to human DLL3 were analyzed using a Biacore 8K instrument. CM5 chips were activated with EDC and NHS, followed by immobilization of anti-human Fc murine mAb and blocked with ethanolamine.
Human DLL3 was diluted two-fold serially to serial concentrations (100 nM-0.39 nM) and associated for 90 s and dissociated for 600 s at a flow rate of 50 μL/min.
After completion of each round of the experiment, the captured antibody was removed together with the antigen by washing with a 3M MgCl₂ solution at a flow rate of 30 μL/min for 30 s to complete the regeneration of the chip. The raw data were analyzed using Biacore Insight Evaluation Software (3.0.12.15655) software and fitted with a (1:1) Langmuir model with.

EC50 [1] | Top MFI [1] | EC50 [2] | Top MFI [2] | EC50 [3] | Top MFI [3] | EC50 [4] | Top MFI [4] | EC50 [5] | Top MFI [5] | Kd [6] | koff [6] | kon [6] | Binder
2.08 nM | 179 MFI | 0.897 nM | 175 MFI | 0.374 nM | 763 MFI | 0.396 nM | 782 MFI |  |  |  |  |  | DLL3-276 camelid-derived anti-DLL3 chimeric antibody (antibody, human IgG1, V domains shown) VH: QVQLVESGGGSVQAGGSLNLSCATSGSTASTTYMGWFRQAPGKGREGVAIIYTARDNPWYANSVKGRFIISQDNAKKTLYLQMNTLKPEDTATYYCAATLANPTRTAWGQGTLVTVSS
1.38 nM | 232 MFI | 0.073 nM | 220 MFI | 0.092 nM | 886 MFI | 0.114 nM | 935 MFI |  |  |  |  |  | DLL3-12 camelid-derived anti-DLL3 chimeric antibody (antibody, human IgG1, V domains shown) VH: QVQLVESGGGLVQPGESLRLSCAGSGFAFSSYDMHWVRQAPGKDFEWVSSISRDGRGPRYADFVKGRFTISKDNGRNMLYLQLNSLEIEDTAMYYCSKGYPIMGGTTQGTQVTVSS
 |  |  |  |  |  |  |  | 1.35 nM | 1520 MFI | 0.811 nM | 0.000178 s⁻¹ | 219000 M⁻¹ s⁻¹ | H-46A5A4 mouse hybridoma-derived humanized anti-DLL3 antibody (antibody, V domains shown) VH: QVQLVQSGAEVKKPGASVKVSCKASGYTFTDHTIHWVRQAPGQGLEWMGYIYPRDGYTMYNEKFKGRVTMTRDTSTSTVYMELSSLRSEDTAVYYCARAFHALDYWGQGTLVTVSS VL: DIQMTQSPSSLSASVGDRVTITCSASQGISNYLNWYQQKPGKAPKLLIYYTSSLHSGVPSRFSGSGSGTDFTFTISSLQPEDIATYYCQQYSKLPYTFGGGTKLEIK
